# Laboratory results reported in patent publication US10358672B2, “7-β-hydroxysteroid dehydrogenase mutants and process for the preparation of ursodeoxycholic acid” (Pharmazell GmbH, priority 2014, dated 2019).
# Test: Photometric activity determination of 7β-HSDH and mutants (decrease in absorbance at 340 nm, DHCA reduction with NADPH)
# Type: biochemical
# Settings: Table 4, variants modified at position 64; 10 mM DHCA, NADPH, KPi pH 8.0
# Description: The activity of the 7β-HSDH and of the mutants was determined using a photometric assay, where the decrease in absorbance was measured at 340 nm over a period of 30 seconds.
# The expression [R64E] in the first column of the table means that the arginine (R) in position 64 of the protein sequence had been replaced by glutamic acid (E) in the mutant in question. The respective amino acid is abbreviated using the international one-letter code. Analogously, [R64D] means that an aspartic acid has been introduced at this position.
Molecule,Specific activity,Volumetric activity
"7β-HSDH [R64D]: 7β-HSDH mutant, arginine in position 64 exchanged for aspartic acid (D) (protein, UniProt A4ECA9 1-263, looked up, variant R64D) 7beta-hydroxysteroid …: MNLREKYGEWGLILGATEGVGKAFCEKIAAGGMNVVMVGRREEKLNVLAGEIRETYGVETKVVDADFSQPGAAETVFAATEGLDMGFMSYVACLHSFGKIQDTPWEKHEAMINVNVVTFLKCFHHYMRIFAAQDRGAVINVSSMTGISSSPWNGQYGAGKAFILKMTEAVACECEGTGVDVEVITLGTTLTPSLLSNLPGGPQGEAVMKIALTPEECVDEAFEKLGKELSVIAGQRNKDSVHDWKANHTEDEYIRYMGSFYRD",32.1 U/mg,641.6 U/ml
"7β-HSDH [R64T]: 7β-HSDH mutant, R in position 64 replaced by T (protein, UniProt A4ECA9 1-263, looked up, variant R64T) 7beta-hydroxysteroid …: MNLREKYGEWGLILGATEGVGKAFCEKIAAGGMNVVMVGRREEKLNVLAGEIRETYGVETKVVTADFSQPGAAETVFAATEGLDMGFMSYVACLHSFGKIQDTPWEKHEAMINVNVVTFLKCFHHYMRIFAAQDRGAVINVSSMTGISSSPWNGQYGAGKAFILKMTEAVACECEGTGVDVEVITLGTTLTPSLLSNLPGGPQGEAVMKIALTPEECVDEAFEKLGKELSVIAGQRNKDSVHDWKANHTEDEYIRYMGSFYRD",27.4 U/mg,450.5 U/ml
"7β-HSDH [R64L]: 7β-HSDH mutant, R in position 64 replaced by L (protein, UniProt A4ECA9 1-263, looked up, variant R64L) 7beta-hydroxysteroid …: MNLREKYGEWGLILGATEGVGKAFCEKIAAGGMNVVMVGRREEKLNVLAGEIRETYGVETKVVLADFSQPGAAETVFAATEGLDMGFMSYVACLHSFGKIQDTPWEKHEAMINVNVVTFLKCFHHYMRIFAAQDRGAVINVSSMTGISSSPWNGQYGAGKAFILKMTEAVACECEGTGVDVEVITLGTTLTPSLLSNLPGGPQGEAVMKIALTPEECVDEAFEKLGKELSVIAGQRNKDSVHDWKANHTEDEYIRYMGSFYRD",20.9 U/mg,334 U/ml
"7β-HSDH [R64S]: 7β-HSDH mutant, R in position 64 replaced by S (protein, UniProt A4ECA9 1-263, looked up, variant R64S) 7beta-hydroxysteroid …: MNLREKYGEWGLILGATEGVGKAFCEKIAAGGMNVVMVGRREEKLNVLAGEIRETYGVETKVVSADFSQPGAAETVFAATEGLDMGFMSYVACLHSFGKIQDTPWEKHEAMINVNVVTFLKCFHHYMRIFAAQDRGAVINVSSMTGISSSPWNGQYGAGKAFILKMTEAVACECEGTGVDVEVITLGTTLTPSLLSNLPGGPQGEAVMKIALTPEECVDEAFEKLGKELSVIAGQRNKDSVHDWKANHTEDEYIRYMGSFYRD",20.1 U/mg,333.7 U/ml
"7β-HSDH [R64P]: 7β-HSDH mutant, R in position 64 replaced by P (protein, UniProt A4ECA9 1-263, looked up, variant R64P) 7beta-hydroxysteroid …: MNLREKYGEWGLILGATEGVGKAFCEKIAAGGMNVVMVGRREEKLNVLAGEIRETYGVETKVVPADFSQPGAAETVFAATEGLDMGFMSYVACLHSFGKIQDTPWEKHEAMINVNVVTFLKCFHHYMRIFAAQDRGAVINVSSMTGISSSPWNGQYGAGKAFILKMTEAVACECEGTGVDVEVITLGTTLTPSLLSNLPGGPQGEAVMKIALTPEECVDEAFEKLGKELSVIAGQRNKDSVHDWKANHTEDEYIRYMGSFYRD",19.1 U/mg,402.0 U/ml
"7β-HSDH [R64V]: 7β-HSDH mutant, R in position 64 replaced by V (protein, UniProt A4ECA9 1-263, looked up, variant R64V) 7beta-hydroxysteroid …: MNLREKYGEWGLILGATEGVGKAFCEKIAAGGMNVVMVGRREEKLNVLAGEIRETYGVETKVVVADFSQPGAAETVFAATEGLDMGFMSYVACLHSFGKIQDTPWEKHEAMINVNVVTFLKCFHHYMRIFAAQDRGAVINVSSMTGISSSPWNGQYGAGKAFILKMTEAVACECEGTGVDVEVITLGTTLTPSLLSNLPGGPQGEAVMKIALTPEECVDEAFEKLGKELSVIAGQRNKDSVHDWKANHTEDEYIRYMGSFYRD",15.1 U/mg,407.7 U/ml
"7β-HSDH [R64K]: 7β-HSDH mutant, R in position 64 replaced by K (protein, UniProt A4ECA9 1-263, looked up, variant R64K) 7beta-hydroxysteroid …: MNLREKYGEWGLILGATEGVGKAFCEKIAAGGMNVVMVGRREEKLNVLAGEIRETYGVETKVVKADFSQPGAAETVFAATEGLDMGFMSYVACLHSFGKIQDTPWEKHEAMINVNVVTFLKCFHHYMRIFAAQDRGAVINVSSMTGISSSPWNGQYGAGKAFILKMTEAVACECEGTGVDVEVITLGTTLTPSLLSNLPGGPQGEAVMKIALTPEECVDEAFEKLGKELSVIAGQRNKDSVHDWKANHTEDEYIRYMGSFYRD",15.1 U/mg,296.5 U/ml
"7β-HSDH [R64C]: 7β-HSDH mutant, R in position 64 replaced by C (protein, UniProt A4ECA9 1-263, looked up, variant R64C) 7beta-hydroxysteroid …: MNLREKYGEWGLILGATEGVGKAFCEKIAAGGMNVVMVGRREEKLNVLAGEIRETYGVETKVVCADFSQPGAAETVFAATEGLDMGFMSYVACLHSFGKIQDTPWEKHEAMINVNVVTFLKCFHHYMRIFAAQDRGAVINVSSMTGISSSPWNGQYGAGKAFILKMTEAVACECEGTGVDVEVITLGTTLTPSLLSNLPGGPQGEAVMKIALTPEECVDEAFEKLGKELSVIAGQRNKDSVHDWKANHTEDEYIRYMGSFYRD",14.19 U/mg,269.7 U/ml
"7β-HSDH [R64A]: 7β-HSDH mutant, R in position 64 replaced by A (protein, UniProt A4ECA9 1-263, looked up, variant R64A) 7beta-hydroxysteroid …: MNLREKYGEWGLILGATEGVGKAFCEKIAAGGMNVVMVGRREEKLNVLAGEIRETYGVETKVVAADFSQPGAAETVFAATEGLDMGFMSYVACLHSFGKIQDTPWEKHEAMINVNVVTFLKCFHHYMRIFAAQDRGAVINVSSMTGISSSPWNGQYGAGKAFILKMTEAVACECEGTGVDVEVITLGTTLTPSLLSNLPGGPQGEAVMKIALTPEECVDEAFEKLGKELSVIAGQRNKDSVHDWKANHTEDEYIRYMGSFYRD",13.77 U/mg,273 U/ml
"7β-HSDH [R64G]: 7β-HSDH mutant, R in position 64 replaced by G (protein, UniProt A4ECA9 1-263, looked up, variant R64G) 7beta-hydroxysteroid …: MNLREKYGEWGLILGATEGVGKAFCEKIAAGGMNVVMVGRREEKLNVLAGEIRETYGVETKVVGADFSQPGAAETVFAATEGLDMGFMSYVACLHSFGKIQDTPWEKHEAMINVNVVTFLKCFHHYMRIFAAQDRGAVINVSSMTGISSSPWNGQYGAGKAFILKMTEAVACECEGTGVDVEVITLGTTLTPSLLSNLPGGPQGEAVMKIALTPEECVDEAFEKLGKELSVIAGQRNKDSVHDWKANHTEDEYIRYMGSFYRD",12.36 U/mg,223 U/ml
"7β-HSDH [R64F]: 7β-HSDH mutant, R in position 64 replaced by F (protein, UniProt A4ECA9 1-263, looked up, variant R64F) 7beta-hydroxysteroid …: MNLREKYGEWGLILGATEGVGKAFCEKIAAGGMNVVMVGRREEKLNVLAGEIRETYGVETKVVFADFSQPGAAETVFAATEGLDMGFMSYVACLHSFGKIQDTPWEKHEAMINVNVVTFLKCFHHYMRIFAAQDRGAVINVSSMTGISSSPWNGQYGAGKAFILKMTEAVACECEGTGVDVEVITLGTTLTPSLLSNLPGGPQGEAVMKIALTPEECVDEAFEKLGKELSVIAGQRNKDSVHDWKANHTEDEYIRYMGSFYRD",10.5 U/mg,216 U/ml
"7β-HSDH [R64W]: 7β-HSDH mutant, R in position 64 replaced by W (protein, UniProt A4ECA9 1-263, looked up, variant R64W) 7beta-hydroxysteroid …: MNLREKYGEWGLILGATEGVGKAFCEKIAAGGMNVVMVGRREEKLNVLAGEIRETYGVETKVVWADFSQPGAAETVFAATEGLDMGFMSYVACLHSFGKIQDTPWEKHEAMINVNVVTFLKCFHHYMRIFAAQDRGAVINVSSMTGISSSPWNGQYGAGKAFILKMTEAVACECEGTGVDVEVITLGTTLTPSLLSNLPGGPQGEAVMKIALTPEECVDEAFEKLGKELSVIAGQRNKDSVHDWKANHTEDEYIRYMGSFYRD",10.1 U/mg,214 U/ml
"7β-HSDH [R64I]: 7β-HSDH mutant, R in position 64 replaced by I (protein, UniProt A4ECA9 1-263, looked up, variant R64I) 7beta-hydroxysteroid …: MNLREKYGEWGLILGATEGVGKAFCEKIAAGGMNVVMVGRREEKLNVLAGEIRETYGVETKVVIADFSQPGAAETVFAATEGLDMGFMSYVACLHSFGKIQDTPWEKHEAMINVNVVTFLKCFHHYMRIFAAQDRGAVINVSSMTGISSSPWNGQYGAGKAFILKMTEAVACECEGTGVDVEVITLGTTLTPSLLSNLPGGPQGEAVMKIALTPEECVDEAFEKLGKELSVIAGQRNKDSVHDWKANHTEDEYIRYMGSFYRD",9.83 U/mg,171 U/ml
"7β-HSDH [R64Y]: 7β-HSDH mutant, R in position 64 replaced by Y (protein, UniProt A4ECA9 1-263, looked up, variant R64Y) 7beta-hydroxysteroid …: MNLREKYGEWGLILGATEGVGKAFCEKIAAGGMNVVMVGRREEKLNVLAGEIRETYGVETKVVYADFSQPGAAETVFAATEGLDMGFMSYVACLHSFGKIQDTPWEKHEAMINVNVVTFLKCFHHYMRIFAAQDRGAVINVSSMTGISSSPWNGQYGAGKAFILKMTEAVACECEGTGVDVEVITLGTTLTPSLLSNLPGGPQGEAVMKIALTPEECVDEAFEKLGKELSVIAGQRNKDSVHDWKANHTEDEYIRYMGSFYRD",9.7 U/mg,220.3 U/ml

# Same assay, conditions: qualitative statement
row,Molecule,activity compared with the wild-type enzyme
1,"7β-HSDH [R64D]: 7β-HSDH mutant, arginine in position 64 exchanged for aspartic acid (D) (protein, UniProt A4ECA9 1-263, looked up, variant R64D) 7beta-hydroxysteroid …: MNLREKYGEWGLILGATEGVGKAFCEKIAAGGMNVVMVGRREEKLNVLAGEIRETYGVETKVVDADFSQPGAAETVFAATEGLDMGFMSYVACLHSFGKIQDTPWEKHEAMINVNVVTFLKCFHHYMRIFAAQDRGAVINVSSMTGISSSPWNGQYGAGKAFILKMTEAVACECEGTGVDVEVITLGTTLTPSLLSNLPGGPQGEAVMKIALTPEECVDEAFEKLGKELSVIAGQRNKDSVHDWKANHTEDEYIRYMGSFYRD",increase in the specific activity
2,"7β-HSDH [R64T]: 7β-HSDH mutant, R in position 64 replaced by T (protein, UniProt A4ECA9 1-263, looked up, variant R64T) 7beta-hydroxysteroid …: MNLREKYGEWGLILGATEGVGKAFCEKIAAGGMNVVMVGRREEKLNVLAGEIRETYGVETKVVTADFSQPGAAETVFAATEGLDMGFMSYVACLHSFGKIQDTPWEKHEAMINVNVVTFLKCFHHYMRIFAAQDRGAVINVSSMTGISSSPWNGQYGAGKAFILKMTEAVACECEGTGVDVEVITLGTTLTPSLLSNLPGGPQGEAVMKIALTPEECVDEAFEKLGKELSVIAGQRNKDSVHDWKANHTEDEYIRYMGSFYRD",increase in the specific activity
